Twelve molecules from article PMC6910952 (Nature Communications, 2019) can be followed below.

In general, Kd refers to the free concentration of one partner at which half of the binding sites on the other are occupied at equilibrium, for simple one-to-one binding.

Numbering of substitutions follows the chain as printed.

First the molecules themselves.
B1: His6-yNpl4^113–580 T571A (domain or fragment, Saccharomyces cerevisiae, UniProt P33755 113-580, looked up)
chain: IKELAVDEELEKEDGLIPRQKSKLCKHGDRGMCEYCSPLPPWDKEYHEKNKIKHISFHSYLKKLNENANKKENGSSYISPLSEPDFRINKRCHNGHEPWPRGICSKCQPSAITLQQQEFRMVDHVEFQKSEIINEFIQAWRYTGMQRFGYMYGSYSKYDNTPLGIKAVVEAIYEPPQHDEQDGLTMDVEQVKNEMLQIDRQAQEMGLSRIGLIFTDLSDAGAGDGSVFCKRHKDSFFLSSLEVIMAARHQTRHPNVSKYSEQGFFSSKFVTCVISGNLEGEIDISSYQVSTEAEALVTADMISGSTFPSMAYINDTTDERYVPEIFYMKSNEYGITVKENAKPAFPVDYLLVTLTHGFPNTDTETNSKFVSSTGFPWSNRQAMGQSQDYQELKKYLFNVASSGDFNLLHEKISNFHLLLYINSLQILSPDEWKLLIESAVKNEWEESLLKLVSSAGWQALVMILQESG
notes: source: E. coli Rosetta (DE3), purified (Ni-NTA, Resource Q); not shown: His6, N-terminal, kept
B2: His6-yNpl4^113–580 I575A (domain or fragment, Saccharomyces cerevisiae, UniProt P33755 113-580, looked up)
chain: B1 chain with A459T, I463A
notes: as for B1
B3: His6-yNpl4^113–580 S498L (domain or fragment, Saccharomyces cerevisiae, UniProt P33755 113-580, looked up)
chain: B1 chain with S386L, A459T
notes: as for B1
B4: His6-yNpl4^113–580 S498R (domain or fragment, Saccharomyces cerevisiae, UniProt P33755 113-580, looked up)
chain: B1 chain with S386R, A459T
notes: as for B1
B5: His6-yNpl4^113–580 A494F (domain or fragment, Saccharomyces cerevisiae, UniProt P33755 113-580, looked up)
chain: B1 chain with A382F, A459T
notes: as for B1
B6: His6-yNpl4^113–580 M574Q (domain or fragment, Saccharomyces cerevisiae, UniProt P33755 113-580, looked up)
chain: B1 chain with A459T, M462Q
notes: as for B1
B7: yUfd1–His6-yNpl4^113–580 complex (complex, Saccharomyces cerevisiae)
chain 1: MFSGFSSFGGGNGFVNMPQTFEEFFRCYPIAMMNDRIRKDDANFGGKIFLPPSALSKLSMLNIRYPMLFKLTANETGRVTHGGVLEFIAEEGRVYLPQWMMETLGIQPGSLLQISSTDVPLGQFVKLEPQSVDFLDISDPKAVLENVLRNFSTLTVDDVIEISYNGKTFKIKILEVKPESSSKSICVIETDLVTDFAPPVGYVEPDYKALKAQQDKEKKNSFGKGQVLDPSVLGQGSMSTRIDYAGIANSSRNKLSKFVGQGQNISGKAPKAEPKQDIKDMKITFDGEPAKLDLPEGQLFFGFPMVLPKEDEESAAGSKSSEQNFQGQGISLRKSNKRKTKSDHDSSKSKAPKSPEVIEID
chain 2: B1 chain with A459T
notes: Ufd1 of Saccharomyces cerevisiae (yUfd1), full-length gene in pGEX-6P1; also called yUfd1–yNpl4; not shown: GST, N-terminal, cleaved; His6, N-terminal, kept
B8: His6-yNpl4^113–580 M574A (domain or fragment, Saccharomyces cerevisiae, UniProt P33755 113-580, looked up)
chain: B1 chain with A459T, M462A
notes: as for B1
B9: GST-yNpl4 T571A (natural protein, Saccharomyces cerevisiae, UniProt P33755 1-580, looked up)
chain: MLIRFRSKNGTHRVSCQENDLFGTVIEKLVGNLDPNADVDTFTVCEKPGQGIHAVSELADRTVMDLGLKHGDMLILNYSDKPANEKDGVNVEIGSVGIDSKGIRQHRYGPLRIKELAVDEELEKEDGLIPRQKSKLCKHGDRGMCEYCSPLPPWDKEYHEKNKIKHISFHSYLKKLNENANKKENGSSYISPLSEPDFRINKRCHNGHEPWPRGICSKCQPSAITLQQQEFRMVDHVEFQKSEIINEFIQAWRYTGMQRFGYMYGSYSKYDNTPLGIKAVVEAIYEPPQHDEQDGLTMDVEQVKNEMLQIDRQAQEMGLSRIGLIFTDLSDAGAGDGSVFCKRHKDSFFLSSLEVIMAARHQTRHPNVSKYSEQGFFSSKFVTCVISGNLEGEIDISSYQVSTEAEALVTADMISGSTFPSMAYINDTTDERYVPEIFYMKSNEYGITVKENAKPAFPVDYLLVTLTHGFPNTDTETNSKFVSSTGFPWSNRQAMGQSQDYQELKKYLFNVASSGDFNLLHEKISNFHLLLYINSLQILSPDEWKLLIESAVKNEWEESLLKLVSSAGWQALVMILQESG
notes: Npl4 of Saccharomyces cerevisiae (yNpl4), full length; source: E. coli Rosetta (DE3) (pGEX-6P1), purified (Glutathione Sepharose FF, Resource Q); not shown: GST, N-terminal, kept
B10: GST-yNpl4 A494F (natural protein, Saccharomyces cerevisiae, UniProt P33755 1-580, looked up)
chain: B9 chain with A494F, A571T
notes: as for B9
B11: GST-yNpl4 M574Q (natural protein, Saccharomyces cerevisiae, UniProt P33755 1-580, looked up)
chain: B9 chain with A571T, M574Q
notes: as for B9
B12: GST-yNpl4 S498R (natural protein, Saccharomyces cerevisiae, UniProt P33755 1-580, looked up)
chain: B9 chain with S498R, A571T
notes: as for B9

The target of the first test is T1, M1-Ub4 (UniProt P0CG48 1-76; P0CG48 1-76; P0CG48 1-76; P0CG48 1-76).
T1 construct: ubiquitin (Ub), first unit; ubiquitin (Ub), second unit; ubiquitin (Ub), third unit; ubiquitin (Ub), fourth unit
T1 sequence (P0CG48 1-304, one chain of several): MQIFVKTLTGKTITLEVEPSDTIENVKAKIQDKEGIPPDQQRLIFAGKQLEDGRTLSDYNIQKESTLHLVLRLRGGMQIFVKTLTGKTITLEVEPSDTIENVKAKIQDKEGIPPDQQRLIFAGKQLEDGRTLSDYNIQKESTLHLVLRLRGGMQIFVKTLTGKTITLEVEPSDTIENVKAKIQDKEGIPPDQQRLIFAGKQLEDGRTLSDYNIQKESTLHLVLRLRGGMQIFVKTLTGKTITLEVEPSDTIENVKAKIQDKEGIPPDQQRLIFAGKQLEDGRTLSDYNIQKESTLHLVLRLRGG
The test can be described thus: SPR; Biacore T200, 25 °C; wild-type or mutant His6-yNpl4^113–580, yUfd1–His6-yNpl4^113–580 or His6-hNpl4 immobilized on a CM5 chip by amine coupling; Ub2 or Ub4 in two-fold dilution series injected 60 s at 10 μL per min in 10 mM HEPES-NaOH pH 7.5, 150 mM NaCl, 0.05% Tween-20, 0.5 g/L BSA; equilibrium Kd. The note with it: both partners purified. (In general: Surface plasmon resonance follows binding to a sensor surface in real time, without labels.)
The molecule B1 came in with a Kd of 923 µM.
In turn, B2 yielded a Kd of 837 µM.
Consider B3, for which the affinity, expressed as Kd, was 101 µM.
Still for that read-out and setting: the same measure for B4: 136 µM; for B5: 84 µM.
B6 came in with a Kd of 634 µM.
As for B7, the Kd was determined as 151 µM.
In turn, B8 yielded a Kd of 291 µM.

For a further test, the target named is T2, Cdc48 (recombinant, hexameric) (Saccharomyces cerevisiae, UniProt P25694 1-835).
T2 construct: Cdc48 AAA-family ATPase of Saccharomyces cerevisiae; source: E. coli Rosetta (DE3) (pET21a), purified (TALON resin, Superose 6)
T2 sequence (P25694 whole entry): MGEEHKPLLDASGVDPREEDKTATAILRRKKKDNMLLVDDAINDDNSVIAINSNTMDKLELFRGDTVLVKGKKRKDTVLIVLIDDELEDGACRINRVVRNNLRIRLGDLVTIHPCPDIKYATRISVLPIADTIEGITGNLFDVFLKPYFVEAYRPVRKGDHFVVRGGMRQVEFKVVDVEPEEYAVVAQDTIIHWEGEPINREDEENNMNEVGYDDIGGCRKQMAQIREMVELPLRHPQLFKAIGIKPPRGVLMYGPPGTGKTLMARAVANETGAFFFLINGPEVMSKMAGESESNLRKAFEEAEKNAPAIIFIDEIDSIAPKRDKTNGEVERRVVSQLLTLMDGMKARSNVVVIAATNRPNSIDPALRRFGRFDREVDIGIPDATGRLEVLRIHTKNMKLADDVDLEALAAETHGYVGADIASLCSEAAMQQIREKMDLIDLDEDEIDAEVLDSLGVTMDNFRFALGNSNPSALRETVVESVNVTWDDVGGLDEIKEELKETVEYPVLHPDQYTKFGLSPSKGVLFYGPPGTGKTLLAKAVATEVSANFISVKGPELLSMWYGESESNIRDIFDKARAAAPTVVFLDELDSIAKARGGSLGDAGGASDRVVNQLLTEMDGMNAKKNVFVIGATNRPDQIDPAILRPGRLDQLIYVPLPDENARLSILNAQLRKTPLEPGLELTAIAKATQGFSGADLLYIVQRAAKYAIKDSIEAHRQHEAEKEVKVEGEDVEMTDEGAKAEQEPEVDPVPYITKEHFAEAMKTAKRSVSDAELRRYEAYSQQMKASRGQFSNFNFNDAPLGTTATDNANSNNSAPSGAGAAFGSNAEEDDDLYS
The test is described as follows: pull-down; GST-yNpl4 (0.5 μM, wild type or mutant) on Glutathione Sepharose 4B beads, 1 h at room temperature with 0.5 μM yUfd1, 3 μM Cdc48 (0.5 μM hexamer) and 1 μg K48 chains in 100 μL 50 mM Tris-HCl pH 7.5, 100 mM NaCl, 10% glycerol, 0.1% Triton X-100; chains detected by anti-Ub immunoblot, proteins by Ponceau S. The note with it: both partners purified. For orientation: In western blotting, separated proteins are transferred to a membrane and probed.
Regarding B9, the binding result is “binds”.
As for B10, the binding result is “binds”.
On the same count and under the same terms, the same measure for B11: “binds”.
As to B12, the binding result is given as “binds”.
